The target in assay [1] is fibrin clots (formed from fibrinogen with bovine thrombin). Put plainly: fibrin clot binding; ratio against full length t-PA.
For assay [2] the target is unchanged. Put plainly: fibrin clot binding at 0.2 mg/mL fibrinogen; bound = total minus free enzyme in the supernatant.
Assay [3] has the same target. Put plainly: fibrin clot binding at 0.3 mg/mL fibrinogen; bound = total minus free enzyme in the supernatant.
The target in assay [4] is chimeric truncated and mutant variant of t-PA (truncated-mutant t-PA, KHRR 128-131 substituted with AAAA) (human) (UniProt P00750). Put plainly: cell-based or functional assay.
Assay [5] addresses full length t-PA (tissue-type plasminogen activator), commercially available t-PA, Actylase (human) (UniProt P00750). Put plainly: cell-based or functional assay.

In the case of “chimeric truncated t-PA (GHRP-SYQ-K2S) (from UniProt P00750 211-562) (enzyme)”, the fibrin affinity relative to full length t-PA (set to 100%) in assay [1] is 86%. Besides, the values for the fibrin affinity (percent of enzyme bound to fibrin clot) in assay [2] and in assay [3] were 38% and 46%, respectively.

Take “full length t-PA (tissue-type plasminogen activator), commercially available t-PA, Actylase (from UniProt P00750 36-562) (enzyme)”: the fibrin affinity (percent of enzyme bound to fibrin clot) was 44% in assay [2] and 53% in assay [3].

In the case of “human rPAI-1 (recombinant plasminogen activator inhibitor-1) (from UniProt P05121 24-402)”, the residual activity after inhibition by rPAI-1 in assay [4] worked out at 85%; in assay [5], 65%.

(Values after patent US20120058537A1.)
